Consider one molecule from PMC9646986, “A sandwich-like configuration with a signal amplification strategy using a methylene blue/aptamer complex on a heterojunction 2D MoSe2/2D WSe2 electrode: Toward a portable and sensitive electrochemica”.

This data set concerns the target T1, alpha-fetoprotein (AFP) (UniProt P02771 19-609).
T1 sequence: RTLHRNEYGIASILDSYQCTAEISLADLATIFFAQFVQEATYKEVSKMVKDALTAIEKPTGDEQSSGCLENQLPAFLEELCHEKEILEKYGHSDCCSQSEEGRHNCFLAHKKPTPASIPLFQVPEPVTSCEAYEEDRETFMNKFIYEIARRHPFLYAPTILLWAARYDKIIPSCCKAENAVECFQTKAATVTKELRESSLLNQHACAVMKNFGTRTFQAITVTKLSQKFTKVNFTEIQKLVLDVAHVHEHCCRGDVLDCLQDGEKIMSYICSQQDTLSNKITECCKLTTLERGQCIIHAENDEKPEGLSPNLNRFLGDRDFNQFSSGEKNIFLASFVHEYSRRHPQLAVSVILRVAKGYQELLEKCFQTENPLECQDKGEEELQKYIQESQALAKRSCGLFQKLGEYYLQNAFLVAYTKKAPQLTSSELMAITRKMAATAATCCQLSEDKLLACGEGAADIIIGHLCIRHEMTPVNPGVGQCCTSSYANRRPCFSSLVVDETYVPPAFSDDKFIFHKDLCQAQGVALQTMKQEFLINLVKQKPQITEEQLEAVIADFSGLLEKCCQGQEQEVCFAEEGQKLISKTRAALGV
The experiment in a line: electrochemical sandwich assay (DPV, methylene blue read-out); AFP 50 ng/ml captured by anti-AFP; aptamer 10 uM; MB 10 mM; DPV in 0.010 M PBS pH 7.4 (performance section prints 0.0010 M); aptamer 10 uM, 40 min; temperature not given. Conditions: protein: commercial.

Regarding GTGACGCTCCTAACGCTGACTCAGGTGCAGTTCTCGACTCGGTCTT (ssDNA) [AFP aptamer], the binding result is reported as “binds”.
